Source: patent US20190233475A1 (Bicycle, published 2019)
Read-outs that look alike come from different tables or passages of the source. *1 amine or outer side, *2 acyl side, *3 side chain or, on linkers, in order; H or OH if unused. Bridges are numbered along the chain shown (N, C = ends). Where no end group is shown, it is not given here. [ ]: non-standard residue; d: D form. TBMB = c1c(C[*:1])cc(C[*:3])cc1C[*:2]; hArg = N=C(N)NCCCC[C@H](N)C(=O)O; Aze = O=C(O)[C@@H]1CCN1; Sar = CNCC(=O)O

Tests used:
Assay in all cases: enzyme inhibition assay, fluorogenic substrate Z-PheArg-AMC
[1] = target: T1, human plasma kallikrein (human, UniProt P03952 20-638)
T1 construct: Enzyme used in the Ki assays; also called human kallikrein; PK
T1 sequence (P03952 20-638 limits assumed): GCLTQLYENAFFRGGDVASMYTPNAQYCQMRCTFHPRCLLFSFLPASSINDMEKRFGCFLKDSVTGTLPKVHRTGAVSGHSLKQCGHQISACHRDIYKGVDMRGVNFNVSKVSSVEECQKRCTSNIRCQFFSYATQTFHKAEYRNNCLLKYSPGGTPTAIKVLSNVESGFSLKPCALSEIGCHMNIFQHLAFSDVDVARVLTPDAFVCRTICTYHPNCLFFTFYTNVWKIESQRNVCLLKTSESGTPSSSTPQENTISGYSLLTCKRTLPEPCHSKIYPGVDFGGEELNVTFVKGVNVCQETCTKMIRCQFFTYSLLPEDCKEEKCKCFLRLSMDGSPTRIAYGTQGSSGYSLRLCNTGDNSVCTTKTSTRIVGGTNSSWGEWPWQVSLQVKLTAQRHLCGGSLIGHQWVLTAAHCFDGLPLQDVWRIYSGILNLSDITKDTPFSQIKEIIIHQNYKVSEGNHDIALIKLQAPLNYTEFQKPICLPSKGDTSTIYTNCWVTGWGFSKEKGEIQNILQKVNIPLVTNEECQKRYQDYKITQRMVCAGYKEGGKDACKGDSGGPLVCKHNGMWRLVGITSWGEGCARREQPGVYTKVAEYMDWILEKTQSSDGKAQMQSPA
Description: (§1) Functional enzyme assays were conducted in 10 mM Tris HCl, 150 mM NaCl, 10 mM MgCl₂, 1 mM CaCl₂ and 1 mg/mL BSA (all Sigma UK) pH 7.4 at 25° C. in solid black 96 or 384 well plates. […] Release of AMC was measured using a Pherastar FS (BMG Labtech), excitation 360 nm, emission 460 nm. The rate of the linear phase of the reaction, typically 5 to 45 minutes, was calculated in MARS data analysis software (BMG labtech). The rate was then used to calculate the IC₅₀ and Kᵢ in Prism (GraphPad). A four parameter inhibition non-linear regression equation was used to calculate the IC₅₀. The One site-fit Kᵢ equation used to calculate the Kᵢ, constraining the Kᵢ to the Kₘ for the substrate which is 150 μM for the human enzyme, and 200 μM for the rat orthologue. All Kᵢ/IC₅₀ values are the mean of at least two independent experiments, and at least three for peptides with Kᵢ values lower than 1 nM. For rabbit kallikrein, between 7 to 14 pM enzyme was employed, with 33 μM substrate with a Kₘ of 50 μM.

[2] = target: T2, rat plasma kallikrein (rat, UniProt P14272 391-638)
T2 construct: domain: catalytic domain; Expressed and purified in house; also called rat kallikrein; rPK
T2 sequence (P14272 391-638 limits assumed): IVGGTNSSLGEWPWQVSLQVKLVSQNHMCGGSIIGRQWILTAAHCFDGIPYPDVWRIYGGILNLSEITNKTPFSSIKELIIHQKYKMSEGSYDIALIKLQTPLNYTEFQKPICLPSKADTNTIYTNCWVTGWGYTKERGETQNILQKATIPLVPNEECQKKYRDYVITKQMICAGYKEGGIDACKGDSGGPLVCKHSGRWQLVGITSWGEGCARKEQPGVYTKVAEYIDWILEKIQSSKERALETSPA
Description: as §1

[3] = target: T1, human plasma kallikrein; remark: listed apart in the source
Description: as §1

[4] = target: T2, rat plasma kallikrein; remark: listed apart in the source
Description: as §1

[5] = target: T3, rabbit plasma kallikrein (rabbit, UniProt G1T127 20-390; G1T127 391-629, The active enzyme is two chains, heavy and catalytic light, joined by a disulfide after cleavage at Arg390-Ile391. The letters do not carry the natural glycosylation.)
T3 construct: also called rabbit kallikrein
T3 sequence (heavy, as listed by the source limits assumed, form in doubt, chain 1 of 2): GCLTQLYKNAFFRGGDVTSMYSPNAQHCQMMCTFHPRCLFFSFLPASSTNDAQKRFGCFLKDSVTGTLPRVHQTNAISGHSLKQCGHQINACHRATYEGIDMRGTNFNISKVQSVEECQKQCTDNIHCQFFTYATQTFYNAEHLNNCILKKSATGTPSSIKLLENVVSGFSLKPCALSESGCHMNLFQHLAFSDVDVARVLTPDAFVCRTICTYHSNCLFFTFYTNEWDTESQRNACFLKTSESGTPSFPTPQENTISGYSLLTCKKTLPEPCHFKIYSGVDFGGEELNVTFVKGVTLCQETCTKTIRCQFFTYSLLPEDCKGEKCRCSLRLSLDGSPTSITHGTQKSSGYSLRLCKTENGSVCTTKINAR
T3 sequence (light, as listed by the source limits assumed, form in doubt, chain 2 of 2): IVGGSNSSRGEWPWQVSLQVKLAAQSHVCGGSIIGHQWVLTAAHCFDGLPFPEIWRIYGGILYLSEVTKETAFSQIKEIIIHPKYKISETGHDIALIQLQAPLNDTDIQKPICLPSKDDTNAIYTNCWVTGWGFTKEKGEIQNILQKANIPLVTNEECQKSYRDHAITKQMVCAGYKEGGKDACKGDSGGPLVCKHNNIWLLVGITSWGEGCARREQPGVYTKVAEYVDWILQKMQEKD
Description: as §1

[6] = target: T3, rabbit plasma kallikrein; remark: listed apart in the source
Description: as §1

Binder	Ki [1]	Ki [2]	Ki [3]	Ki [4]	Ki [5]	Ki [6]
ACNHWNPWCSADPPICA-NH2 (linker 2-9-16 via TBMB, Synthetic bicyclic peptide, 6 x 6, made on Rink amide resin) [06-259-03]	1.4 nM	8.2 nM	–	–	–	–
ACRNYWNPCTLINITCA-NH2 (linker 2-9-16 via TBMB, Synthetic bicyclic peptide, 6 x 6, made on Rink amide resin) [06-255]	3.4 nM	18.9 nM	3.4 nM	18.9 nM	342 nM	342 nM
ACQKFESRCRVDTRYCA-NH2 (linker 2-9-16 via TBMB, Synthetic bicyclic peptide, 6 x 6, made on Rink amide resin) [06-256]	6.6 nM	2780 nM	6.6 nM	2780 nM	1460 nM	1460 nM
ACNHWNPWCSVEPPVCA-NH2 (linker 2-9-16 via TBMB, Synthetic bicyclic peptide, 6 x 6, made on Rink amide resin) [06-259-01]	2.4 nM	10.4 nM	–	–	–	–
ACPYPFRCLHENLCA-NH2 (linker 2-8-14 via TBMB, Synthetic bicyclic peptide, 5 x 5, made on Rink amide resin) [06-258]	4.3 nM	5.2 nM	4.3 nM	5.2 nM	331 nM	331 nM
Ac-CSF[Aze]Y[hArg]CVYYPDICA[Sar][Sar][Sar][dR][dR]-NH2 (linker 1-7-14 via TBMB, Synthetic bicyclic peptide, 5 x 6, made on Rink amide resin; also called Bicycle 1) [Ac-(06-550)-Sar3-(DArg2) Aze3HArg5]	–	–	0.4 nM	8.2 nM	2650 nM	–
ACNNFPFRCVYYPDICA-NH2 (linker 2-9-16 via TBMB, Synthetic bicyclic peptide, 6 x 6, made on Rink amide resin) [06-261]	0.4 nM	4 nM	0.4 nM	4 nM	1040 nM	1040 nM
Ac-CRNYWNPCTLINITC-NH2 (linker 1-8-15 via TBMB, Synthetic bicyclic peptide without the terminal alanines, made on Rink amide resin) [Ac-(06-255)]	–	–	3.7 nM	7.7 nM	342 nM	–
Ac-CRNYWNPCTLINITCA[Sar][Sar][Sar][dR][dR]-NH2 (linker 1-8-15 via TBMB; SMILES CC[C@H](C)[C@@H]1NC(=O)[C@H](CC(C)C)NC(=O)[C@H]([C@@H](C)O)NC(=O)[C@@H]2CSCc3cc(cc(c3)CSC[C@@H](C(=O)N[C@@H](C)C(=O)N(C)CC(=O)N(C)CC(=O)N(C)CC(=O)N[C@H](CCCNC(=N)N)C(=O)N[C@H](CCCNC(=N)N)C(N)=O)NC(=O)[C@H]([C@@H](C)O)NC(=O)[C@H]([C@@H](C)CC)NC(=O)[C@H](CC(N)=O)NC1=O)CSC[C@H](NC(C)=O)C(=O)N[C@@H](CCCNC(=N)N)C(=O)N[C@@H](CC(N)=O)C(=O)N[C@@H](Cc1ccc(O)cc1)C(=O)N[C@@H](Cc1c[nH]c3ccccc13)C(=O)N[C@@H](CC(N)=O)C(=O)N1CCC[C@H]1C(=O)N2, Synthetic bicyclic peptide with solubilising extension, made on Rink amide resin) [Ac-(06-255)-Sar3-(DArg2)]	–	–	1.2 nM	7.4 nM	251 nM	–
ACKNYWNPCDLVMDTCA-NH2 (linker 2-9-16 via TBMB; N-terminus assumed; SMILES CSCC[C@@H]1NC(=O)[C@H](C(C)C)NC(=O)[C@H](CC(C)C)NC(=O)[C@H](CC(=O)O)NC(=O)[C@@H]2CSCc3cc(cc(c3)CSC[C@@H](C(=O)N[C@@H](C)C(N)=O)NC(=O)[C@H]([C@@H](C)O)NC(=O)[C@H](CC(=O)O)NC1=O)CSC[C@H](NC(=O)[C@H](C)N)C(=O)N[C@@H](CCCCN)C(=O)N[C@@H](CC(N)=O)C(=O)N[C@@H](Cc1ccc(O)cc1)C(=O)N[C@@H](Cc1c[nH]c3ccccc13)C(=O)N[C@@H](CC(N)=O)C(=O)N1CCC[C@H]1C(=O)N2, Synthetic bicyclic peptide, 6 x 6, made on Rink amide resin) [06-254-03]	1.4 nM	10.1 nM	–	–	–	–
ACKNYWNPCDLVTISCA-NH2 (linker 2-9-16 via TBMB; N-terminus assumed; SMILES CC[C@H](C)[C@@H]1NC(=O)[C@H]([C@@H](C)O)NC(=O)[C@H](C(C)C)NC(=O)[C@H](CC(C)C)NC(=O)[C@H](CC(=O)O)NC(=O)[C@@H]2CSCc3cc(cc(c3)CSC[C@@H](C(=O)N[C@@H](C)C(N)=O)NC(=O)[C@H](CO)NC1=O)CSC[C@H](NC(=O)[C@H](C)N)C(=O)N[C@@H](CCCCN)C(=O)N[C@@H](CC(N)=O)C(=O)N[C@@H](Cc1ccc(O)cc1)C(=O)N[C@@H](Cc1c[nH]c3ccccc13)C(=O)N[C@@H](CC(N)=O)C(=O)N1CCC[C@H]1C(=O)N2, Synthetic bicyclic peptide, 6 x 6, made on Rink amide resin) [06-254]	5.3 nM	42.5 nM	5.3 nM	42.5 nM	280 nM	280 nM
Ac-CSFPYRCVYYPDICA[Sar][Sar][Sar][dR][dR]-NH2 (linker 1-7-14 via TBMB, Synthetic bicyclic peptide, 5 x 6, made on Rink amide resin) [Ac-(06-550)-Sar3-(DArg2)]	–	–	2.1 nM	24 nM	207 nM	–
ACNTWNPWCPWDAPLCA-NH2 (linker 2-9-16 via TBMB, Synthetic bicyclic peptide, 6 x 6, made on Rink amide resin) [06-259-02]	2.3 nM	0.2 nM	–	–	–	1450 nM
ACNYWNPWCPWDAPLCA-NH2 (linker 2-9-16 via TBMB, Synthetic bicyclic peptide, 6 x 6, made on Rink amide resin) [06-259-04]	3.4 nM	6.7 nM	–	–	–	–
ACPLSDTLCYRRMPPCA-NH2 (linker 2-9-16 via TBMB, Synthetic bicyclic peptide, 6 x 6, made on Rink amide resin) [06-257]	36.1 nM	159 nM	36.1 nM	159 nM	–	–
ACNTWNPWCGWVGGFCA-NH2 (linker 2-9-16 via TBMB, Synthetic bicyclic peptide, 6 x 6, made on Rink amide resin) [06-259]	20.1 nM	6.2 nM	20.1 nM	6.2 nM	–	–
ACKNYWNPCDLIPGPCA-NH2 (linker 2-9-16 via TBMB; N-terminus assumed; SMILES CC[C@H](C)[C@@H]1NC(=O)[C@H](CC(C)C)NC(=O)[C@H](CC(=O)O)NC(=O)[C@@H]2CSCc3cc(cc(c3)CSC[C@@H](C(=O)N[C@@H](C)C(N)=O)NC(=O)[C@@H]3CCCN3C(=O)CNC(=O)[C@@H]3CCCN3C1=O)CSC[C@H](NC(=O)[C@H](C)N)C(=O)N[C@@H](CCCCN)C(=O)N[C@@H](CC(N)=O)C(=O)N[C@@H](Cc1ccc(O)cc1)C(=O)N[C@@H](Cc1c[nH]c3ccccc13)C(=O)N[C@@H](CC(N)=O)C(=O)N1CCC[C@H]1C(=O)N2, Synthetic bicyclic peptide, 6 x 6, made on Rink amide resin) [06-254-02]	0.5 nM	7.6 nM	–	–	–	–
Ac-CNTWNPWCPWDAPLCA[Sar][Sar][Sar][dR][dR]-NH2 (linker 1-8-15 via TBMB; SMILES CC(=O)N[C@H]1CSCc2cc3cc(c2)CSC[C@H](NC(=O)[C@H](Cc2c[nH]c4ccccc24)NC(=O)[C@@H]2CCCN2C(=O)[C@H](CC(N)=O)NC(=O)[C@H](Cc2c[nH]c4ccccc24)NC(=O)[C@H]([C@@H](C)O)NC(=O)[C@H](CC(N)=O)NC1=O)C(=O)N1CCC[C@H]1C(=O)N[C@@H](Cc1c[nH]c2ccccc12)C(=O)N[C@@H](CC(=O)O)C(=O)N[C@@H](C)C(=O)N1CCC[C@H]1C(=O)N[C@@H](CC(C)C)C(=O)N[C@H](C(=O)N[C@@H](C)C(=O)N(C)CC(=O)N(C)CC(=O)N(C)CC(=O)N[C@H](CCCNC(=N)N)C(=O)N[C@H](CCCNC(=N)N)C(N)=O)CSC3, Synthetic bicyclic peptide with solubilising extension, made on Rink amide resin; also called Bicycle 3) [Ac-(06-259-02)-Sar3-(DArg2)]	–	–	0.8 nM	2.1 nM	1450 nM	–
Ac-CSFPYRCVYYPDIC-NH2 (linker 1-7-14 via TBMB) [Ac-(06-550)]	–	–	0.9 nM	9.3 nM	610 nM	–
